Test: yeast display, Sf9 membrane polyspecificity reagent, FACS + sequencing; frameworks hold sequencing errors
Outline: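 A nanobody's polyreactivity label depends on the gate it was sorted from. Yeast display cells were stained with 10% biotinylated, detergent-solubilized Sf9 membrane reagent for 1 hour at 4 °C, enriched on streptavidin microbeads and sorted by FACS. The low and high (top ~1%) gates were set on anti-HA fluorescence for expression and streptavidin fluorescence for reagent binding.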

| Sequence | polyreactivity (PSR sort gate) |
| --- | --- |
| QVQLVESGGGLVQAGGSLRLSCAASGRIFSYYTMGGYRQAPGTERELVAAISSGGSTNYADSVKGRFTISRDNAKNTVYLQMNSLKPEDTAVYYCAVRSGRRNYDRPAFGYWGQGTQVTVSS | high polyreactivity |
| QVQLVESGGGLVQAGGSLRLSCAASGRIFSYYTMGWYRQAPGKEREFVAAISWNDGSTYYADSVKGRFTISRDNSKNTVYLQMNSLKPEDTAVYYCAAEYHYFWWRMDYWGQGTQVTVSS | high polyreactivity |
| QVQLVESGGGLVQAGGSLRLSCAASGRIFSYYTMGWYRQAPGKERELVAAITSGDSTNYADSVKGRFTISRDNAKNTVYLQMNSLKPEDTAVYYCNARYSWWRSRVGSSHGPDGYWGQGTQVTVSS | high polyreactivity |
| QVQLVESGGGLVQAGGSLRLSCAASGRIFTANAMGWYRQAPGKERELVAAITSGTRTNYADSVKGRFTISRDNAKNTVYLQMNSLKPEDTAVFYCAKETATSKYDYWGQGTQVTVSS | low polyreactivity |
| QVQLVESGGGLVQAGGSLRLSCAASGRIFTFYAMGWYRQAPGKERELVAAITSGGSTYYADSVKGRFTISRDNAKKTVYLQMNSLKPEDTAVYYCNTYPGSRHGWYDYWGQVTQVTVSS | high polyreactivity |
| QVQLVESGGGLVQAGGSLRLSCAASGRIFTGNAMGWYRQAPGKERELVAAISSRGGRTYYADSVKGRFTISRDNAKNTVYLQMNSLKPEDTAVYYCNAVAVAASRAYSWYDYWGQGTQVTVSS | high polyreactivity |
| QVQLVESGGGLVQAGGSLRLSCAASGRIFTGYALGWYRQAPGKERELVAAISRGGSTNYADSVKGRFTISRDNAKNTVYLQMNSLKPEDTAVYYCAAGVHWDRGDYWGQGTQVTVSS | low polyreactivity |
| QVQLVESGGGLVQAGGSLRLSCAASGRIFTGYAMGWYRQAPGKERELVAAISRGGSTNYADSVKGRFTISRDNAKNSVYLQMNSLKPEDTAVYYCAAGVHWDRGDYWGQGTQVTVSS | low polyreactivity |
| QVQLVESGGGLVQAGGSLRLSCAASGRIFTGYAMGWYRQAPGKERELVATIRSRGGGTYYADSVKGRFTISRDNAKNTVYLQMNSLKPEDTAVYYCAADDYYYYFGTRYGYWGQGTQVTVSS | low polyreactivity |
| QVQLVESGGGLVQAGGSLRLSCAASGRIFTGYTMGWYRQAPGKERELVAGITRGGSTYYADSVKGRFTISRDNAKNTVYLQMNSLKPEDTAVYYCAADYPRFWYHSWYVPAYYYWGQGTQVTVSS | high polyreactivity |
| QVQLVESGGGLVQAGGSLRLSCAASGRIFTHNAIGWYRQAPGKERELVAGISYGGGSTYYADSVKGRFTISRDNAKITVYLQMNSLKPEDTAVYYCIAYIYDTYYWGQGTQVTVSS | low polyreactivity |
| QVQLVESGGGLVQAGGSLRLSCAASGRIFTHNAMGWYRQAPGKERELVAAISSIGGSTYYADSVKGRFTISRDNAKNTVYLQMNSLKPEDTAVYYCAVKRPLYGDSEYYYWGQGTQVTVSS | low polyreactivity |
| QVQLVESGGGLVQAGGSLRLSCAASGRIFTHNTMGWYRQAPGKERELVAAISSSGGSTYYADSVKGRFTISRDNAKNTVYLQMNSLKPDDTAVYYCNTLIKGRWIVVGYGYPGYDYWGQGTQVTVSS | high polyreactivity |
| QVQLVESGGGLVQAGGSLRLSCAASGRIFTIYAMGWSRQAPGKERELVAAITVSTGSTYYADSVKGRFTISRDNAKNTVYLQMKSLKPEDTAVYYCAKRGQSYTYRRYDYWGQGTQVTVSS | low polyreactivity |
| QVQLVESGGGLVQAGGSLRLSCAASGRIFTIYAMGWYRQAPGKERELVAGIRGGGSTNYADSVKGRFTISRDNAKNTVYLLMNSLKPEDTAVYYCAAEVRRYVIVPYYYWGQGTQVTVSS | high polyreactivity |
| QVQLVESGGGLVQAGGSLRLSCAASGRIFTIYAMGWYRQAPGKERELVATISSNVGSTYYADSVKGRFTISRDNAKNTVYLQMNSLKPEDTAVYYCAATRRAGFTTAKFDYWGQGTQVTVSS | high polyreactivity |
| QVQLVESGGGLVQAGGSLRLSCAASGRIFTKNTKGWYRQAPGKERELVAAIRSRAGSTYYADSVKGRFTISRDNAKNTVYLQMNSLKPEDTAVYYCAVPWFRSVDFDYWGQGTQVTVSS | low polyreactivity |
| QVQLVESGGGLVQAGGSLRLSCAASGRIFTKYAMGWYRQAPGKERELVAAISSRGGSTYYADSVKGRFTISRDNAKNTVYLQMNSLKPEDTAVYYCAAGYLPRYYYTPQFDGDYWGQGTQVTVSS | high polyreactivity |
| QVQLVESGGGLVQAGGSLRLSCAASGRIFTKYAMGWYRQAPGKERELVAGINWRDGRTYYADSVKGRFTLSRDNAKNTVYLQMISLKPVDTAVYYCAGVSIFGRRWMYYWGQGTQVTVSS | high polyreactivity |
| QVQLVESGGGLVQAGGSLRLSCAASGRIFTPYAMGWYRQAPGKERELVAGISSSGGSTYYADSVKGRFTISRDNAKNTVYLQMNSLKPEDTAVYFCNKRYRGTPRSYDYWGQGTQVTVSS | high polyreactivity |
| QVQLVESGGGLVQAGGSLRLSCAASGRIFTRNAMGLYRQAPGKERELVAAISWRGGSTYYADSVKGRFTISRDNAKNTVYLQMNSLKPEDTAVYYCAAQPWFGRAARYRTTYYYWGQGTQVTVSS | high polyreactivity |
| QVQLVESGGGLVQAGGSLRLSCAASGRIFTRNVMGWYRQAPGKERELVAAITTNGGSTYYADSVKGRFTISRDNAKNTVYLQMNSLKPEDTAVYYCAKRTVHYTWVYYWGQGTQVTVSS | high polyreactivity |

| Sequence | polyreactivity (PSR sort gate) |
| --- | --- |
| QVQLVESGGGLVQAGGSLRLSCAASGRIFTRYAMGWYRPSPGKERELVAAISRNGGGTYYAESVKGRFTISRDNAKNTVYLQMNSLKPEDTAVYYCNAESTFVWGSYVRYDYWGQGTQVTVSS | low polyreactivity |
| QVQLVESGGGLVQAGGSLRLSCAASGRIFTRYAMGWYRQAPGKERELVAAINSGGSTKYADSVKGRFTISRDNAKHTVYLQMNSLKPEDTAVYYCNACYWWYGYDYWGQGTQVTVSS | high polyreactivity |
| QVQLVESGGGLVQAGGSLRLSCAASGRIFTRYAMGWYRQAPGKERELVATISGSGSTNYADSVKGRFTISRDNAKNTVYLQMNSLKPEDTAVYYCNRRSRREYDYWGQGTQVTVSS | low polyreactivity |
| QVQLVESGGGLVQAGGSLRLSCAASGRIFTRYAMGWYRQAPGTERELVAVITRSGGSTYYADSVKGRFTISRDNAKNTVYLQMNSLKPEDTAVYYCAAKYYGEMYYWGQGTQVTVSS | low polyreactivity |
| QVQLVESGGGLVQAGGSLRLSCAASGRIFTRYAMGWYRQATGKERELVAAISSGGGNTYYADSVKGRFTISRDNAKNTVYLQMNSLKPEDTAVYYCAALRSWRKTGGAQRYWYDYWGQGTQVTVSS | high polyreactivity |
| QVQLVESGGGLVQAGGSLRLSCAASGRIFTSNAMGWYRQAPGKERELVAAISKSGGRTYYADSVKGRFTISRDNAKNTVYLQMNSLKPEDTAVYYCAKDNYWGQGTQVTVSS | high polyreactivity |
| QVQLVESGGGLVQAGGSLRLSCAASGRIFTSNAMGWYRQAPGKERELVAAISSSGTRTYYADSVKGRFTISRDNAKNTVYLQMNSHKPEDTAVYYCASGAPSLKYEYWGQGTQVTVSS | high polyreactivity |
| QVQLVESGGGLVQAGGSLRLSCAASGRIFTSNTMAWYRQAPGKERELVAAITSSGGSMYYADSVKGRFTLSRDNAKNTVYLQIISLKPEDTAVYYFAGDTIGYHYWYDYWGQGTQVTVSS | low polyreactivity |
| QVQLVESGGGLVQAGGSLRLSCAASGRIFTSYAMGWSRQAPGKERELVATISSADGTKYADSVKGRFTISRDNAKNTVYLQMNSLKPEDTAVYYCNAYVWSWNDYWGQGTQVTVSS | low polyreactivity |
| QVQLVESGGGLVQAGGSLRLSCAASGRIFTSYAMGWYRQAPGKERELVAAISRRGDSTYYADSVKGRFTISRDNAKNTVYLQMNSLKPEDTAVYYCNARSSRIWDYYGFDYWGQGTQVTVSS | high polyreactivity |
| QVQLVESGGGLVQAGGSLRLSCAASGRIFTSYAMGWYRQAPGKERELVAAITASGGRTYYADSVKGRFTISRDNAKNTVYLQMNCLKPEDTAVYYCAKLLSFQGDYWGQGTQVTVSS | high polyreactivity |
| QVQLVESGGGLVQAGGSLRLSCAASGRIFTSYTMGWYRQAPGKERELVAAIDWSGGTTYYADSVKGRFTISRDNAKNTVYLQMNSLKPEDTAVYYCAALYVKVGYYTYEYWGQGTQVTVSS | low polyreactivity |
| QVQLVESGGGLVQAGGSLRLSCAASGRIFTTYAMGWYRPAPGKERELVAAISQNGGSTYYADSVKGRFTISRDNAKNTVFLQMNSLKPEDTAVYYCNAGPAGYYDYDYWGQGTLVTVSS | low polyreactivity |
| QVQLVESGGGLVQAGGSLRLSCAASGRIFTTYAMGWYRQAPGKERELVAAISRSGGSTYYADSVKGRFTISRDNAKNTVYLQMNSLKPEDTAVYYCAAVPTSNSFLSSFYYWGQGTQVTVSS | high polyreactivity |
| QVQLVESGGGLVQAGGSLRLSCAASGRIFTTYAMGWYRQAPGKERELVAAISRSGGSTYYADSVKGRFTISRDNAKNTVYLQMNSLKTEDTAVYYCAAVPTSNSFRSSFYYWGQGTQVTVSS | high polyreactivity |
| QVQLVESGGGLVQAGGSLRLSCAASGRIFTTYAMGWYRQAPGKERELVARISSGGTTYYADSVQGRFTISRDNAKNTVYLQMNSLKPEDTAVYYCNVRAVTPTRSRPFRYDYWGQGTQVTVSS | high polyreactivity |
| QVQLVESGGGLVQAGGSLRLSCAASGRIFTTYAMGWYRQAPGKERELVASITTTDTRTYADSVKGRFTISRDNAKNTVYLQMNSLKPEDTAVYNCAKDRLNKGRYYRAASDYWGQGTQVTVSS | low polyreactivity |
| QVQLVESGGGLVQAGGSLRLSCAASGRIFTVYAMGWYRQAPGKERELVAAIDFSDGTTYYADSVKARFTISRDNAKNTVYLQMNSLKPEDTAVYYCAAEGGSALDDDYWGQGTQVTVSS | high polyreactivity |
| QVQLVESGGGLVQAGGSLRLSCAASGRIFTWYAMGWYRQAPGKERELVAAISWSGGRTYYADSVKGRFTISRDNAKNTVYLQMNSLKPEDTAVYYCNAVPSVRWRYDYWGQGTQVTVSS | high polyreactivity |
| QVQLVESGGGLVQAGGSLRLSCAASGRIFTYNAMGWSRQAPGKERELVAAISSSGGSTYYADSVKGRFTISRDIAKYTVYLHMNSLKPEDTAVYYCAADDAGFWYYFYGRYVTFDYWGQGTQVTVSS | low polyreactivity |
| QVQLVESGGGLVQAGGSLRLSCAASGRIFTYNAMGWYRQAPGKEWELVAVISRRGGSTYYADSVKGRFTISRDNAKNSVYLQINSLKPDDTAVYYWAADLPSYPYEFWGQGTQVTVSS | low polyreactivity |

Reference: the nanobody polyreactivity screen of Harvey et al. (2022)
